Experimental data from patent publication US20120252718.

Target: cytochrome c (UniProt P62894)
Settings: Cy3 fluorescence quenching, hyperbolic fit; cytochrome c source for this assay not stated

cytochrome c, sequence (P62894 2-105): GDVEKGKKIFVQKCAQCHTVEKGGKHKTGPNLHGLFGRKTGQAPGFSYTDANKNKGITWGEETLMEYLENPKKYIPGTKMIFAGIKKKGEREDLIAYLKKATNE

tRNACys 5'-Cy3
Kd: 3.5 µM
